# Patent US20250197882A1, “USE OF JAZ PROTEIN AND ITS DERIVATIVES IN AGRICULTURAL PEST PREVENTION AND CONTROL” (priority 2022, published 2025)
# Legend:
# [1] = tested on: Sf9 ovarian cell line of Spodoptera frugiperda; format: cell-based
# Excerpt: Using insect cell lines toxicity testing and mechanism of action research of insecticides, as a new detection method, has the advantages of good target homogeneity, easy control of experimental conditions, and low screening costs compared to traditional bioassay methods. It is suitable for toxicological research of insecticidally active substances. In recent years, scholars at home and abroad have conducted extensive research on the activity of plant natural active ingredients on insect cells, and have achieved many research results of the action mechanism of plant natural active ingredients on insect cells, showing a good correlation between experimental results and in vivo toxicity testing and field experiments.
# Fluorescence staining experiment: toxic effect of GhJAZ protein on Sf9 cell line (CL-0205, Procell) was detected using a Calcein/PI Cell Viability and Cytotoxicity Detection kit (Catalogue No.: C2015L, Beyotime, China). The Calcein/PI Cell Activity and Cytotoxicity Detection Kit is a very convenient kit for detecting the viability of animal cells based on Calcein AM (Calcein AM) and PI (Propidium Iodide) dual fluorescence staining. The specific steps are as follows: Adherent cells were blown and transferred to a 15 mL EP tube, centrifuged at 860-870 rpm for 5 minutes. […] After 30 minutes of culture, fluorescence microscopy images were taken. […]
# [2] = tested on: SfAPN4; assay: Yeast two-hybrid (Y2H) interaction with SfAPN4; format: binding, Spodoptera frugiperda; settings: Y2HGold yeast, quadruple dropout medium, FIG. 4B
# Excerpt: DNA fragments shown in PGADT7::GhJAZ8 (SEQ ID No. 3), PGADT7::GhJAZ8^LGK (SEQ ID No. 25), PGADT7::GhJAZ13 (SEQ ID No. 8), PGADT7::GhJAZ14 (SEQ ID No. 10), PGADT7::GhJAZ24 (SEQ ID No. 12), PGADT7::GhJAZ27 (SEQ ID No. 14) and PGADT7::GhJAZ28 (SEQ ID No. 16) were inserted between the BamH1 and EcoR1 of a PGADT7 plasmid (Unibio Biotech, VT1639), respectively, to obtain pGADT7+GhJAZ8, pGADT7+GhJAZ8^LGK, pGADT7+GhJAZ13, pGADT7+GhJAZ14, pGADT7+GhJAZ24, pGADT7+GhJAZ27 and pGADT7+GhJAZ28.
# The DNA fragment shown in PGBKT7: SfAPN4 (SEQ ID NO: 22) was inserted between BamH1 and EcoR1 of a pGBKT7 plasmid (Unibio Biotech, catalog number: VT1638), to obtain a vector plasmid, named pGBKT7+SfAPN4.
# The mixture was centrifuged at 5000 rpm for 30 seconds to discard the supernatant, and the pellet was resuspended in ddH2O, coated on a double dropout medium (SD/-Leu/-Trp) and cultured at 28° C. for 2 days. After occurrence of the clonal plaques, the clones were selected and placed a quadruple dropout medium (SD Ade/-His/-Leu/-Trp, with Aba and X-α-gal added) and the interaction was observed after 4 days of culture at 28° C.
# [3] = tested on: fall armyworm (Spodoptera frugiperda); assay: Feed film-covering bioassay, larval growth inhibition, fall armyworm; format: in vivo; settings: protein on artificial feed, after 7 days, FIGS. 6C, 6E
# Protocol: (§1) Treatment group: add the prepared insect feed (Henan Jiyuan Baiyun Industrial Co., Ltd., product name: Grassland armyworm artificial feed) to a 24 well plate, with a volume of 200 microliters per well; use a film covering method to add diluted GhJAZ8 protein solutions of different concentrations (diluted with PBS) to the surface of the feed, and shake in the incubator until the protein is immersed in the culture medium. Take grassland armyworm and cotton bollworm larvae that have not been fed within the first 12 hours of incubation as experimental subjects, and place them in a culture box, with each concentration of protein applied to 100 larvae. Set 16 replicates for each protein concentration and 3 parallel measurement groups for each dose. Control group: different from the experimental group, PBS solution was added to the surface of the feed using a film covering method, and the rest were the same. After 7 days, age and weight will be recorded for statistical analysis. [formula]
# [4] = tested on: cotton bollworm (Helicoverpa armigera); assay: Feed film-covering bioassay, larval growth inhibition, cotton bollworm; format: in vivo; settings: protein on artificial feed, after 7 days, FIGS. 6D, 6F
# Protocol: as §1
# Chain of SfAPN4 (as listed by the source): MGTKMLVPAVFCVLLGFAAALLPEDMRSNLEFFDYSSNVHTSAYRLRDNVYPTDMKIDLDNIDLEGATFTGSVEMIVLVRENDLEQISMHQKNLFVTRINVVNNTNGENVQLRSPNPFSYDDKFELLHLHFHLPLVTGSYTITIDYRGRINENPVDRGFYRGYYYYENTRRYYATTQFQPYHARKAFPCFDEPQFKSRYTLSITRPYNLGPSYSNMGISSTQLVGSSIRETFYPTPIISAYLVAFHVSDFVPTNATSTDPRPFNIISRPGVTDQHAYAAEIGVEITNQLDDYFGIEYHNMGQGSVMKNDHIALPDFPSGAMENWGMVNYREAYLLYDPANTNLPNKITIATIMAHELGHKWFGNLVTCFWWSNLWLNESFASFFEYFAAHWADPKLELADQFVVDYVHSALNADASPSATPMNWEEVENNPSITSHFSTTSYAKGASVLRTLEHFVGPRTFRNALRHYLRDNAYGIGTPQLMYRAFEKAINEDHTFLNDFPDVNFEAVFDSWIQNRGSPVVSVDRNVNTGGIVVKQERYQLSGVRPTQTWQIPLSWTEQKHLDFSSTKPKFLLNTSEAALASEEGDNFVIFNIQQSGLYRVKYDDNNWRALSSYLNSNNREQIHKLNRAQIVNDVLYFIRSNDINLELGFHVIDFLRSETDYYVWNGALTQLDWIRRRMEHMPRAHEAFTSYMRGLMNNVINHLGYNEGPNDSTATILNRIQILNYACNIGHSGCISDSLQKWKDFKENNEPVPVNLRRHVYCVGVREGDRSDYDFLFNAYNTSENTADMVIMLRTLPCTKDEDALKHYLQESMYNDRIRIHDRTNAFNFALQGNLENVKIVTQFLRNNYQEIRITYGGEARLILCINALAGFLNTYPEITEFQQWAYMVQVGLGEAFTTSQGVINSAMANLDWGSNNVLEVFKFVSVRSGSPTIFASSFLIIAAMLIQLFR
Molecule,cytotoxicity on Sf9 cells [1],interaction with SfAPN4 (Y2H) [2],growth inhibition of fall armyworm larvae [3],growth inhibition of cotton bollworm larvae [4]
"GhJAZ5: cotton JAZ protein, SEQ ID NO: 1, expressed in E. coli from pET-30a-GhJAZ5 (protein) MSSCSESTAMKPARSPEKPSFAQTCNLLSQYLKEKGSFGDLSLGMTCNVEANGTPVVPPPTMNLFPLNDKSDDVCGRNGGNPKNLTSMDLFPQQAGLASKDDSPNKLEPQTAPMTIFYGGQVIVFNDFPANKAKEIMLLASNSSSQSNNSFNPIPFTSSIARSPIESSIGVPPTSKPVHPAQRAVPGDLPIARRASLHRFLEKRKDRITAKAPYQINNSAAAPSLSGDNKSWLGLAAQSP",certain cytotoxic effects,–,–,–
"GhJAZ8^LGK: GhJAZ8 with NGR domain mutated, N43G44R45 to L43G44K45, coding sequence SEQ ID No. 25 (protein) MRRNCNLELRLLPSSYPSDSHDMMEERIESPKTQQQQLTIFYLGKVCVSDVTELQAKAILMLANRERDERMKSPTGWEPVSPTLKSQVKCPNTALSMKRSLQRFLQKRKTRIQATSPYH",–,loses interaction,weakened,weakened
"GhJAZ16: cotton JAZ protein, SEQ ID NO: 5, expressed from pET-30a-GhJAZ16 (protein) MERDFIGLRSKNAAITIKVEPSNAQPDDSVLLRGSGMQLSFSNKVSTVPQFLSFDGARDDKPRKATHDTLLSSGFMTIPAADSNKKPHPGLTQKQGGNHYAATTYGLQQLDGHQSRLSHEARIFPSSSQPNHTITVSMNTPLLQPHLASPGQNIIGHTINPQPFTGVPIMAAPVSVVPPSSPIIGTTDLRNAAKSSRAPAQLTIFYAGSVCVYDDVSPDKAQAIMLLAGNVSSTTQSKTAPVTQPQTHIPRPCTLSPFSGLPNHLSVTSHVSLQPVAGSSGTNELTAATRIGALASTNNQPDPPKLVNPAVAVPQARKASLARFLEKRKERVSNTSPYNICKRSESGPLASDGISFSVTSAGSSPLQAIN",certain cytotoxic effects,–,–,–
